Changes are numbered by the printed parent chain.
T1: carcinoembryonic antigen (CEA) (human, UniProt P06731 35-685)
T1 sequence (looked up): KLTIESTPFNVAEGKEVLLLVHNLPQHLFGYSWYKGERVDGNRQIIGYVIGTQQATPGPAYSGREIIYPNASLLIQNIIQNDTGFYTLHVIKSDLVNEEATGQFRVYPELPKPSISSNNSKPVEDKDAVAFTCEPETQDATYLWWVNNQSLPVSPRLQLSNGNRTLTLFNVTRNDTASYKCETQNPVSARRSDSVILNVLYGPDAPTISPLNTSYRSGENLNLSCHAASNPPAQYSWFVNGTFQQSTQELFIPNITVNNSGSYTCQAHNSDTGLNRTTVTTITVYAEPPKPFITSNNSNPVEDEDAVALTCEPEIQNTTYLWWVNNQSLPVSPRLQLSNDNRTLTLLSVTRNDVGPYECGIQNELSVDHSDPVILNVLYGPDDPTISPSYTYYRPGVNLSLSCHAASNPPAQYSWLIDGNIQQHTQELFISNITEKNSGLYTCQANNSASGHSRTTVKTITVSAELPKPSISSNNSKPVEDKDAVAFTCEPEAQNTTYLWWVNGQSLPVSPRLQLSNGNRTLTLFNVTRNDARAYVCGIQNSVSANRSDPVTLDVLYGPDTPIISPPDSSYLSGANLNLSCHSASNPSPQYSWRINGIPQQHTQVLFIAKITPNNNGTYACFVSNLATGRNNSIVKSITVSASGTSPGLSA

B1: HuCOL-1AbrCDR (antibody, V domains shown)
VH: EVQLVQSGAEVVKPGASVKMSCKASGFNIKDYYMHWVKQRPEQGLEWIGWIDPENGDTEYAQKFQGKATMTTDTSTSTAYLELSSLRSEDTAVYYCNTRGLSTMITTRWFFDVWGAGTLVTVSS
VL: DIVLTQSPASLAVSLGERATINCKSSQSVSASGYSYMHWYQQKPGQPPKLLIYLASNLQSGVPARFSGSGSGTDFTLTISSVQAEDVATYYCQHSRELPTFGGGTKLEIK
notes: also called FRV1; HuCOL-1 24,25,27L/61H
B2: HuCOL-1AbrCDR framework variant 10 (FRV10) (antibody, V domains shown)
VH: B1 VH with E1Q, V12K, M20V, F27Y, K38R, I48M, K67R, A68V, A79V, L81M
VL: B1 VL
notes: also called HuCOL-1FRV10

Experiments:
[1] = target: anti-V region antibodies to COL-1 present in the serum of patient two; test: SPR competition; soluble antibody against immobilized HuCOL-1 for serum anti-V region antibodies
[2] = target: anti-V region antibodies to COL-1 present in the serum of patient one; test: as above
[3] = target: anti-V region antibodies to COL-1 present in the serum of patient two; test: SPR competition, serum of patient two; reference HuCOL-1
[4] = target: T1, carcinoembryonic antigen (CEA); test: competition RIA against 125I-mCOL-1 on CEA; modified Scatchard
Experimental: (§1) Competition RIA: The relative antigen-binding affinity of HuCOL-1, HuCOL-1AbrCDR and HuCOL-1AbrCDR antibodies with framework-substitutions was determined using a competition RIA as described previously (De Pascalis et al., J Immunol., 169:3076-3084, 2002). Twenty-five μl of serial dilutions of the antibodies to be tested, as well as mCOL-1, chimeric COL-1, and HuCOL-1 (positive controls) and HuIgG (negative control), prepared in 1% BSA in PBS, were added to microtiter plates containing 10 ng of […] saturated with 5% BSA in PBS. ¹²⁵I-labeled mCOL-1 (100,000 cpm in 25 μl) was then added to each well. After an overnight incubation at 4° C., the plates were washed and the bound radioactivity was counted in a γ-scintillation counter.
(§2) Competition RIA experiments were performed to determine the relative CEA-binding affinity of chimeric COL-1, HuCOL-1, HuCOL-1AbrCDR, and the different HuCOL-1AbrCDR-derived antibodies. Serial dilutions of unlabeled antibodies were used to compete with the binding of ¹²⁵I-mCOL-1 (FIGS. 4A, 4B and 4C) to CEA.

[5] = target: anti-V region antibodies to COL-1 present in the serum of patient one; test: SPR competition, serum of patient one; reference HuCOL-1
[6] = target: T1, carcinoembryonic antigen (CEA); test: competition RIA against 125I-mCOL-1; reference of the fold not named
Experimental: as §1, §2

[7] = target: T1, carcinoembryonic antigen (CEA); test: competition RIA, unlabeled antibody against 125I-mCOL-1 on CEA; modified Scatchard
Experimental: as §1, §2

[8] = target: anti-V region antibodies to COL-1 present in the serum of patient two; test: SPR competition; reference HuCOL-1; lower end tied to serum EM by Table IV (9.7 against 1.9)
[9] = target: anti-V region antibodies to COL-1 present in the serum of patient one; test: SPR competition; reference HuCOL-1; upper end tied to serum MB by Table IV (28.5 against 4.9)

| Binder | IC50 [1] | IC50 [2] | fold higher IC50 than HuCOL-1 [3] | Ka [4] | fold higher IC50 than HuCOL-1 [5] | Fold Difference [6] | Ka [7] | fold higher IC50 than HuCOL-1 [8] | fold higher IC50 than HuCOL-1 [9] |
| --- | --- | --- | --- | --- | --- | --- | --- | --- | --- |
| B1 | 2.9 nM | 6.9 nM | 1.5 fold | 2.32e+08 M⁻¹ | 1.5 fold | 1.2 fold | 2.3e+08 M⁻¹ | – | – |
| B2 | 9.7 nM | 28.5 nM | – | 3.04e+08 M⁻¹ | – | 0.9 fold | 3.04e+08 M⁻¹ | 5 to 6 fold | 5 to 6 fold |

— patent US20080274055A1 (US Dept. of Health and Human Services, published 2008)
